# T1: scrambled RNase A (reduced and denatured ribonuclease A), P61823
# T1 chain: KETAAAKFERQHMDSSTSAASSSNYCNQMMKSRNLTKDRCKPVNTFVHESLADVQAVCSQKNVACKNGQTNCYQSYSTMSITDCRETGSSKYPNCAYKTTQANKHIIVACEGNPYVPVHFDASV
# B1: bovine protein disulfide-isomerase (protein)
# chain: APDEEDHVLVLHKGNFDEALAAHKYLLVEFYAPWCGHCKALAPEYAKAAGKLKAEGSEIRLAKVDATEESDLAQQYGVRGYPTIKFFKNGDTASPKEYTAGREADDIVNWLKKRTGPAASTLSDGAAAEALVESSEVAVIGFFKDMESDSAKQFFLAAEVIDDIPFGITSNSDVFSKYQLDKDGVVLFKKFDEGRNNFEGEVTKEKLLDFIKHNQLPLVIEFTEQTAPKIFGGEIKTHILLFLPKSVSDYEGKLSNFKKAAESFKGKILFIFIDSDHTDNQRILEFFGLKKEECPAVRLITLEEEMTKYKPESDELTAEKITEFCHRFLEGKIKPHLMSQELPDDWDKQPVKVLVGKNFEEVAFDEKKNVFVEFYAPWCGHCKQLAPIWDKLGETYKDHENIVIAKMDSTANEVEAVKVHSFPTLKFFPASADRTVIDYNGERTLDGFKKFLESGGQDGAGDDDDLEDLEEAEEPDLEEDDDQKAVKDEL
# B2: recombinant protein LmPDI-(His)6 produced in E. coli (protein)
# chain: RESTAESLKLTKENFNETIAKSEIFLVKFYVDTCGYCQMLAPEWEKAANETIDNALMGEVDCHSQPELAANFSIRGYPTIILFRNGKEAEHYGGARTKDDIIKYIKANVGPAVTPASNAEEVTRAKEEHDVVCVGLTANNSTSLSTTLAEAAQSFRVSLKFFEAEPKLFPDEKPETIVVYRKGGEKEVYDGPMEVEKLTEFLQISRVAFGGEITPENYQYYSVIKRPVGWAMVKPNETASIELKESLTEVGKKMRSHMVVLWVNISKHPVWRDFGVPEDAKYPAFLAIHWGANYLHSTAEVVTRESLEKFILEFAAGRVEPTIKSLPVPEVETVDGKTTIVAKTMQKHLTSGKDMLILFFAPWCGHCKNFAPTFDKIAKEFDATDLIVAELDATANYVNSSTFTVTAFPTVFFVPNGGKPVVFEGERSFENVYEFVRKHVTTFKVSEKPANVTEEKKSEEENKSSKSNESNDSNESNVDKQDL
# Legend:
# [1] = target: recombinant protein LmPDI-(His)6 produced in E. coli (Leishmania major); assay: cell-based or functional assay
# [2] = target: T1, scrambled RNase A (reduced and …)
Molecule,inhibition of LmPDI activity (scrambled RNase A reactivation test) [1],inhibition of rLmPDI activity (scrambled RNase reactivation) (% inhibition at 0.1 mM) [1],inhibition of rLmPDI activity (scrambled RNase reactivation) (% inhibition at 0.5 mM) [1],inhibition of rLmPDI activity (scrambled RNase reactivation) (% inhibition at 2 mM) [1],reactivation of scrambled RNase A (RNase A activity at 296 nm) [2]
bacitracin (peptide),2 mM,50,70,100,–
zinc bacitracin (peptide),2 mM,50,70,100,–
B1,–,–,–,–,"LmPDI is capable of restoring RNase A activity in a similar manner to that of bovine PDI, used as a control"
B2,–,–,–,–,LmPDI is capable of restoring RNase A activity in a similar manner to that of bovine PDI

# Reference: patent US20080199496A1
